Laboratory results from US20110097300A1 (SUNNYBROOK HEALTH SCIENCES CENTRE, published 2011).
Where no end group is shown, it is not given here. Maleimide‑PEO2‑Biotin = EZ-link-PEO-maleimide-biotin, biotinylated PEG-maleimide moiety (29 angstrom)

Molecular target: T1, Tie 2 of EaHy926 endothelial cells (UniProt Q02763 23-1124, limits assumed)
T1 construct: whole, on cells; also called Tek
Test: avidin agarose pull down from EaHy926 whole cell lysate, anti-Tie 2 immunoblot
Protocol: In this example, the ability of Vasculotide to bind the Tie 2 receptor, despite the engineered modifications, was tested using an in vitro pull down assay. In the pull down assay, a cell lysate of EaHy926 endothelial cells (which express high levels of Tie 2) was prepared in Phospho Lipase Cγ lysis buffer (50 mM Hepes buffer pH 7.5, 150 mM NaCl, 10% glycerol, 1% Triton X-100, 1.5 mM MgCl₂, 1.0 mM EGTA, 10 mM NaPPi, […], 2 mM Na₃VO₄, 1× aprotinin, 1× leupeptin and 1× PMSF). The whole cell lysate was mixed with either unclustered biotinylated Vasculotide or biotinylated irrelevant peptide. The biotinylated peptides then were isolated with avidin agarose and subsequently tested for their ability to precipitate Tie 2 via standard immunoblot analysis using anti-Tie 2 antibody.

T1 sequence (Q02763 23-1124 limits assumed): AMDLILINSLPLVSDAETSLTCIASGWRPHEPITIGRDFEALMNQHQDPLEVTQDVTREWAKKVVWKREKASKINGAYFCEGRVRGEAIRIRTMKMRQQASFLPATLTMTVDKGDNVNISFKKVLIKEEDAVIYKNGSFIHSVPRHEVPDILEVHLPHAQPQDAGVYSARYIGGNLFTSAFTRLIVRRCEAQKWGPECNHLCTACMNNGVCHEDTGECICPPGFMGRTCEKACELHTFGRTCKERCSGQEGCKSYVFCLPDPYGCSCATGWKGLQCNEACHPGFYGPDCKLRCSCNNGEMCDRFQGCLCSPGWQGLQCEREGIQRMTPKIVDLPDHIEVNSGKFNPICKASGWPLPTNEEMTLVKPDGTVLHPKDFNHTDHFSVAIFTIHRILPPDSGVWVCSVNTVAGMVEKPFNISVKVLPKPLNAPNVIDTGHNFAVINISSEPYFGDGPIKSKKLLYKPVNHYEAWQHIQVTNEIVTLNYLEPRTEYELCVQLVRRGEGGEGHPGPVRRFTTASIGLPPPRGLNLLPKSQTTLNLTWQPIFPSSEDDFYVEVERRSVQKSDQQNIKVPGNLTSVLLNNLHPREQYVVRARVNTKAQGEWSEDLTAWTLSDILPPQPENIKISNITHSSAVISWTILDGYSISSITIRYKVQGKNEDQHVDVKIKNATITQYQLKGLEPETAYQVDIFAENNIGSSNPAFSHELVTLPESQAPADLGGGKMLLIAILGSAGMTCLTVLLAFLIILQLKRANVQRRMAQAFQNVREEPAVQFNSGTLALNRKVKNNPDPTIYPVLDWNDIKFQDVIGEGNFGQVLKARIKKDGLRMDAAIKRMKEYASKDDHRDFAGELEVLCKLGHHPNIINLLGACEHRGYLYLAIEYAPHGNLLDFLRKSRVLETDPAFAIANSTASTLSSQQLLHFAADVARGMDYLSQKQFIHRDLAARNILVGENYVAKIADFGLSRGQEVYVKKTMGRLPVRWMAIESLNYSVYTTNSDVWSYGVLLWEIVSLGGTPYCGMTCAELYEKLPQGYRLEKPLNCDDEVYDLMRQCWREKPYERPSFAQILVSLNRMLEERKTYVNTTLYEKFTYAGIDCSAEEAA

B1: unclustered Vasculotide (biotinylated T7 peptide-PEG monomer) (peptide)
peptide: C(Maleimide‑PEO2‑Biotin)HHHRHSF-OH
notes: L-amino acids; monomer, not clustered with avidin; also called T7-biotin; non-clustered Vasculotide
binding result: binds
